± gives the standard deviation of the averaged measurements.
B1: library; a variant is named by its letters at N, in order (parent)
chain: GCUGUCACCGGUGUAUUACCCUAGUGGUCGACCGGUCUGAUGAGUCUNNNNNNAGACGAAACAGC

Key:
[1] = variants of: B1; assay: FACS-Seq fitted mean relative fluorescence mCherry/BFP without ligand (log10 relative fluorescence); ligand: hypoxanthine (xanthine aptamer); higher = higher reporter protein expression; conditions: HEK293T, ligand present: no
Outline: (§1)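 HEK293T libraries were made by lentiviral transduction with a ribozyme-switch mCherry reporter and an EF1α-BFP marker, enriched, and incubated with or without ligand for 48 h. Cells were sorted into 6 mCherry/BFP bins, and each bin's genomic DNA was PCR-amplified, barcoded and run on MiSeq. Fluorescence was derived by normal fitting of the bin counts. The fitted log10(mCherry/BFP) mean was scaled to five spiked-in control ribozymes.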

[2] = variants of: B1; assay: normalized RNA/DNA level with ligand (relative to sTRSVctl = 100) (log10 (% of sTRSVctl)); ligand: hypoxanthine (xanthine aptamer); higher = less ribozyme self-cleavage, higher mRNA level; conditions: ligand concentration (+) RNA-Seq: 5 mM, HEK293T, reporter: mCherry (pCS4076), ligand present: yes
Description: (§2)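 Hammerhead (sTRSV) ribozyme switch libraries with a ligand aptamer grafted on stem I and a randomized N4-6 loop II, cloned into the 3' UTR of mCherry and transiently transfected into HEK293T cells; RNA-Seq 72 h post transfection with ligand added 1 h before transfection; RNA read count / plasmid DNA read count normalized to the non-cleaving sTRSVctl (x100), log10; sequences with >100 DNA reads. FACS-Seq: lentiviral library sorted into 6 bins after 48 h ligand, log-normal fit mean of mCherry/BFP scaled to controls. Printed sequences are partial switch sequences.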

[3] = variants of: B1; assay: normalized RNA/DNA level without ligand (relative to sTRSVctl = 100) (log10 (% of sTRSVctl)); ligand: hypoxanthine (xanthine aptamer); higher = less ribozyme self-cleavage, higher mRNA level; conditions: HEK293T, reporter: mCherry (pCS4076), ligand present: no
Description: as §2

[4] = variants of: B1; assay: FACS-Seq fitted mean relative fluorescence mCherry/BFP with ligand (log10 relative fluorescence); ligand: hypoxanthine (xanthine aptamer); ligand concentration (+) FACS-Seq: 5 mM; higher = higher reporter protein expression; conditions: HEK293T, ligand present: yes
Outline: as §1

Variant	FACS-Seq fitted mean (log10) [1]	normalized RNA/DNA level with ligand (log10) [2]	normalized RNA/DNA level without ligand (log10) [3]	FACS-Seq fitted mean (log10) [4]
UCAAGA	0.386 ± 0.04	1.92 ± 0.028	1.54 ± 0.051	0.599 ± 0.074
UCAAGU	0.221 ± 0.018	1.91 ± 0.0075	1.63 ± 0.043	0.415 ± 0.046
CCAAAU	0.00231 ± 0.0079	1.93 ± 0.0062	1.83 ± 0.058	0.404 ± 0.042
CCAAAC	0.763 ± 0.049	1.93 ± 0.038	1.875 ± 0.012	0.528 ± 0.086
ACAAGC	0.743 ± 0.017	1.92 ± 0.033	1.76 ± 0.015	0.863 ± 0.082
ACAAGG	-0.00738 ± 0.11	1.83 ± 0.065	1.26 ± 0.024	0.113 ± 0.14
ACAAGA	0.164 ± 0.1	1.891 ± 0.0031	1.65 ± 0.037	0.121 ± 0.037
CCAAGU	0.347 ± 0.027	1.94 ± 0.024	1.863 ± 0.016	0.544 ± 0.032
CCAAGC	0.126 ± 0.14	1.938 ± 0.012	1.79 ± 0.15	0.366 ± 0.074
UAUUGG	0.528 ± 0.017	1.87 ± 0.031	1.431 ± 0.011	0.745 ± 0.06
UAUUGU	0.106 ± 0.0092	1.92 ± 0.044	1.7 ± 0.026	0.411 ± 0.049
ACAGUC	0.656 ± 0.012	1.924 ± 0.0022	1.951 ± 0.0032	0.657 ± 0.04
ACAGUU	-0.0389 ± 0.048	1.914 ± 0.0073	1.73 ± 0.021	0.0577 ± 0.038
CCAAUG	0.585 ± 0.11	1.929 ± 0.011	1.61 ± 0.046	0.683 ± 0.023
CAUUUA	-0.0161 ± 0.022	1.98 ± 0.036	1.77 ± 0.034	0.532 ± 0.019
CAUUUC	0.66 ± 0.057	1.92 ± 0.043	1.9 ± 0.069	0.774 ± 0.066
GAUUCG	-0.06 ± 0.056	1.906 ± 0.0054	1.54 ± 0.021	0.357 ± 0.021
GAUGGA	0.4617 ± 0.0039	1.913 ± 0.0011	1.67 ± 0.036	0.698 ± 0.029
GAUGGU	0.501 ± 0.024	1.95 ± 0.07	1.76 ± 0.022	0.748 ± 0.062
GAUGGG	-0.0971 ± 0.21	1.81 ± 0.025	1.3 ± 0.053	0.3779 ± 0.0029
GAUGGC	0.369 ± 0.012	1.89 ± 0.016	1.598 ± 0.0036	0.596 ± 0.041
UCAACA	0.101 ± 0.027	1.959 ± 0.018	1.84 ± 0.024	0.297 ± 0.054
UCAACG	0.504 ± 0.15	1.918 ± 0.0024	1.783 ± 0.015	0.585 ± 0.091
CCACCC	0.2004 ± 0.0019	1.93 ± 0.044	1.93 ± 0.045	0.312 ± 0.0055

Variant	FACS-Seq fitted mean (log10) [1]	normalized RNA/DNA level with ligand (log10) [2]	normalized RNA/DNA level without ligand (log10) [3]	FACS-Seq fitted mean (log10) [4]
CAUGCG	0.687 ± 0.064	1.92 ± 0.049	1.91 ± 0.082	0.645 ± 0.005
CAUGCU	0.614 ± 0.036	1.97 ± 0.039	1.904 ± 0.013	0.529 ± 0.073
GCACAA	0.663 ± 0.02	1.86 ± 0.046	1.75 ± 0.019	0.678 ± 0.026
GCACAG	0.227 ± 0.034	1.863 ± 0.00078	1.45 ± 0.021	0.0639 ± 0.076
AAUGUG	0.203 ± 0.0069	1.82 ± 0.026	1.39 ± 0.05	0.573 ± 0.036
AAUGUA	0.284 ± 0.0037	1.9 ± 0.088	1.79 ± 0.047	0.204 ± 0.0096
AAUGUU	0.678 ± 0.033	1.9 ± 0.072	1.85 ± 0.038	0.605 ± 0.077
ACAAUA	0.442 ± 0.015	1.916 ± 0.017	1.81 ± 0.015	0.552 ± 0.018
ACAAUG	0.37 ± 0.017	1.87 ± 0.061	1.56 ± 0.053	0.638 ± 0.044
AAUUAG	0.404 ± 0.012	1.86 ± 0.037	1.52 ± 0.032	0.681 ± 0.03
AAUUAC	0.511 ± 0.13	1.96 ± 0.04	1.823 ± 0.016	0.516 ± 0.022
AAUUAA	0.435 ± 0.032	1.893 ± 0.0034	1.764 ± 0.0032	0.276 ± 0.14
AAUGCG	-0.0193 ± 0.038	1.85 ± 0.03	1.42 ± 0.089	0.462 ± 0.044
AAUGCA	0.304 ± 0.078	1.9039 ± 0.0013	1.772 ± 0.012	0.563 ± 0.029
GCACGG	-0.136 ± 0.023	1.86 ± 0.026	1.444 ± 0.009	0.376 ± 0.087
GAUUGC	0.4839 ± 0.0013	1.87 ± 0.054	1.65 ± 0.043	0.553 ± 0.01
GAUUGU	0.452 ± 0.076	1.944 ± 0.01	1.77 ± 0.042	0.601 ± 0.054
GAUUGG	-0.303 ± 0.024	1.794 ± 0.017	1.29 ± 0.047	0.393 ± 0.017
GAUUGA	0.348 ± 0.023	1.92 ± 0.022	1.61 ± 0.05	0.455 ± 0.063
GCAGGG	-0.0762 ± 0.0096	1.88 ± 0.028	1.506 ± 0.0099	0.479 ± 0.017
GCAGGA	0.661 ± 0.024	1.9091 ± 0.0012	1.72 ± 0.035	0.705 ± 0.051
GAUUAC	0.748 ± 0.036	1.935 ± 0.0039	1.8 ± 0.049	0.749 ± 0.12
GAUUAU	0.368 ± 0.062	1.945 ± 0.0077	1.839 ± 0.012	0.455 ± 0.019
GAUUAG	0.0562 ± 0.066	1.86 ± 0.075	1.39 ± 0.014	0.539 ± 0.085

Variant	FACS-Seq fitted mean (log10) [1]	normalized RNA/DNA level with ligand (log10) [2]	normalized RNA/DNA level without ligand (log10) [3]	FACS-Seq fitted mean (log10) [4]
GAUUAA	0.276 ± 0.0053	1.949 ± 0.012	1.79 ± 0.044	0.381 ± 0.012
UAUGAC	0.282 ± 0.084	1.95 ± 0.047	1.807 ± 0.01	0.457 ± 0.11
GCAAAU	-0.00409 ± 0.019	1.932 ± 0.0088	1.75 ± 0.043	0.371 ± 0.013
GCAAAC	0.411 ± 0.03	1.91 ± 0.023	1.6 ± 0.036	0.455 ± 0.055
UCACCG	0.705 ± 0.011	1.94 ± 0.027	1.7 ± 0.025	0.592 ± 0.045
UCACCU	0.67 ± 0.034	1.94 ± 0.037	1.94 ± 0.061	0.419 ± 0.013
UCACCA	0.743 ± 0.044	1.93 ± 0.025	1.919 ± 0.0074	0.834 ± 0.076
AAUUGA	-0.0788 ± 0.062	1.9 ± 0.041	1.73 ± 0.018	-0.112 ± 0.16
AAUUGG	0.22 ± 0.02	1.872 ± 0.014	1.405 ± 0.0046	0.658 ± 0.036
CCACUG	0.339 ± 0.054	1.917 ± 0.012	1.8 ± 0.1	0.526 ± 0.076
GCACCU	0.968 ± 0.14	1.942 ± 0.0073	1.94 ± 0.044	0.785 ± 0.08
UCAAAU	0.4822 ± 0.0021	1.92 ± 0.02	1.77 ± 0.036	0.54 ± 0.053
UCAAAG	-0.374 ± 0.059	1.92 ± 0.072	1.68 ± 0.039	-0.184 ± 0.025
UCAAAA	0.491 ± 0.022	1.934 ± 0.013	1.717 ± 0.0054	0.446 ± 0.019
GAUGUU	0.33 ± 0.0059	1.914 ± 0.017	1.841 ± 0.0059	0.447 ± 0.029
GAUGUG	0.2 ± 0.026	1.82 ± 0.019	1.31 ± 0.06	0.673 ± 0.077
CAUGGU	0.331 ± 0.045	1.82 ± 0.02	1.755 ± 0.0046	0.455 ± 0.014
CAUGGG	0.245 ± 0.013	1.86 ± 0.038	1.39 ± 0.038	0.603 ± 0.0033
GCACUA	0.503 ± 0.091	1.939 ± 0.0064	1.81 ± 0.027	0.489 ± 0.08
GCACUG	0.25 ± 0.031	1.877 ± 0.012	1.45 ± 0.029	0.464 ± 0.011
GCACUU	0.8516 ± 0.0035	1.965 ± 0.015	1.9 ± 0.068	0.751 ± 0.069
UAUGGG	0.525 ± 0.08	1.857 ± 0.0095	1.41 ± 0.084	0.723 ± 0.072
UAUGGC	-0.121 ± 0.027	1.92 ± 0.012	1.82 ± 0.022	0.322 ± 0.0061
UAUGGU	0.514 ± 0.064	1.88 ± 0.036	1.527 ± 0.004	0.643 ± 0.029

From the supplement of paper PMC6757056
